Sequences and labels used below:
T1: capsid shell protein (CSP) λ1 (Mammalian reovirus serotype Dearing 3, UniProt P15024 1-1275)
T1 construct: capsid shell protein λ1 of mammalian reovirus serotype Dearing 3, native in the virus particle; 120 copies in each particle as λ1A/λ1B dimers; five pairs (1-5) around each vertex; also called λ1A; λ1B
T1 sequence: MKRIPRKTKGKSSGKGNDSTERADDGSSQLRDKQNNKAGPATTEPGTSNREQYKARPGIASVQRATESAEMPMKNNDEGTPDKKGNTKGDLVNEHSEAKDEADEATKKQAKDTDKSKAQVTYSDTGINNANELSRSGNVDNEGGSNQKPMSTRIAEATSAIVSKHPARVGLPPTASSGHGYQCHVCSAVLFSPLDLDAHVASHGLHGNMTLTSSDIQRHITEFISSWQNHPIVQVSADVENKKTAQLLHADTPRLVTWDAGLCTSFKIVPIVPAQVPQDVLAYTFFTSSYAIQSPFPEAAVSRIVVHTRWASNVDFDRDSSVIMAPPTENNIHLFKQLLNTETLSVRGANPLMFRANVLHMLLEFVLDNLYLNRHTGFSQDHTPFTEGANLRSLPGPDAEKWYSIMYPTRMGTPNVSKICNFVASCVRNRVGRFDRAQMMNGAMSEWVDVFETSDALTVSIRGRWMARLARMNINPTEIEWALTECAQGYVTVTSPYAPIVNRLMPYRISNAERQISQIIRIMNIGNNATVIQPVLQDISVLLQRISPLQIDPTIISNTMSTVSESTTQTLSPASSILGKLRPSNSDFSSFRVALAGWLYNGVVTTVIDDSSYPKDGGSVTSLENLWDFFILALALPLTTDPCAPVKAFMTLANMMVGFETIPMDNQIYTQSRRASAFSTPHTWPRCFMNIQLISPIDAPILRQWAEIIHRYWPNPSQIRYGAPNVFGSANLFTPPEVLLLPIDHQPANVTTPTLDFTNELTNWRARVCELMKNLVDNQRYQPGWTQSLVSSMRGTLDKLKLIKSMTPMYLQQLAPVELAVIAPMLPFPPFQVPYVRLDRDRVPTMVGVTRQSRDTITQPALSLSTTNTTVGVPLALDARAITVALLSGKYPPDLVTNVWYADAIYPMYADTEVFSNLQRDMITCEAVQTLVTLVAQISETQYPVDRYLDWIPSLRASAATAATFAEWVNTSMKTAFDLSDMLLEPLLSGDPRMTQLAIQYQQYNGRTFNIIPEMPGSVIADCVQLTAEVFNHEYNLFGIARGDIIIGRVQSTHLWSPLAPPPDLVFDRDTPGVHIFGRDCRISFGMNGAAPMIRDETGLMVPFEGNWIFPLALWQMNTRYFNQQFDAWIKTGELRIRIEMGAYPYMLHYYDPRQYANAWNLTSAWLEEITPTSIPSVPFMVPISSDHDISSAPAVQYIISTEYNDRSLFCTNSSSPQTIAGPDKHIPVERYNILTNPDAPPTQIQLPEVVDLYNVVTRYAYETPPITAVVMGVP

B1: RdRp-bound nucleoside triphosphatase μ2 (enzyme)
chain: MAYIAVPAVVDSRSSEAIGLLESFGVDAGADANDVSYQDHDYVLDQLQYMLDGYEAGDVIDALVHKNWLHHSVYCLLPPKSQLLEYWKSNPSAIPDNVDRRLRKRLMLKKDLRKDDEYNQLARAFKISDVYAPLISSTTSPMTMIQNLNRGEIVYTTTDRVIGARILLYAPRKYYASTLSFTMTKCIIPFGKEVGRVPHSRFNVGTFPSIATPKCFVMSGVDIESIPNEFIKLFYQRVKSVHANILNDISPQIVSDMINRKRLRVHTPSDRRAAQLMHLPYHVKRGASHVDVYKVDVVDMLFEVVDVADGLRNVSRKLTMHTVPVCILEMLGIEIADYCIRQEDGMLTDWFLLLTMLSDGLTDRRTHCQYLMNPSSVPPDVILNISITGFINRHTIDVMPDIYDFVKPIGAVLPKGSFKSTIMRVLDSISILGIQIMPRAHVVDSDEVGEQMEPTFEQAVMEIYKGIAGVDSLDDLIKWVLNSDLIPHDDRLGQLFQAFLPLAKDLLAPMARKFYDNSMSEGRLLTFAHADSELLNANYFGHLLRLKIPYITEVNLMIRKNREGGELFQLVLSYLYKMYATSAQPKWFGSLLRLLICPWLHMEKLIGEADPASTSAEIGWHIPREQLMQDGWCGCEDGFIPYVSIRAPRLVIEELMEKNWGQYHAQVIVTDQLVVGEPRRVSAKAVIKGNHLPVKLVSRFACFTLTAKYEMRLSCGHSTGRGAAYSARLAFRSDLA
notes: NTPase μ2 of mammalian reovirus serotype Dearing 3, native in the virus particle; 736 residues in all, 680 modelled; RBD 1-264, NTPase domain 265-607, CTD 608-736; also called NTPase; NTPase μ2
B2: RNA-dependent RNA polymerase (RdRp) λ3 (enzyme)
chain: MSSMILTQFGPFIESISGITDQSNDVFEDAAKAFSMFTRSDVYKALDEIPFSDDAMLPIPPTIYTKPSHDSYYYIDALNRVRRKTYQGPDDVYVPNCSIVELLEPHETLTSYGRLSEAIENRAKDGDSQARIATTYGRIAESQARQIKAPLEKFVLALLVAEAGGSLYDPVLQKYDEIPDLSHNCPLWCFREICRHISGPLPDRAPYLYLSAGVFWLMSPRMTSAIPPLLSDLVNLAILQQTAGLDPSLVKLGVQICLHAAASSSYSWFILKTKSIFPQNTLHSMYESLEGGYCPNLEWLEPRSDYKFMYMGVMPLSAKYARSAPSNDKKARELGEKYGLSSVVGELRKRTKTYVKHDFASVRYIRDAMACTSGIFLVRTPTETVLQEYTQSPEIKVPIPQKDWTGPIGEIRILKDTTSSIARYLYRTWYLAAARMAAQPRTWDPLFQAIMRSQYVTARGGSGAALRESLYAINVSLPDFKGLPVKAATKIFQAAQLANLPFSHTSVAILADTSMGLRNQVQRRPRSIMPLNVPQQQVSAPHTLTADYINYHMNLSPTSGSAVIEKVIPLGVYASSPPNQSINIDISACDASITWDFFLSVIMAAIHEGVASSSIGKPFMGVPASIVNDESVVGVRAARPISGMQNMIQHLSKLYKRGFSYRVNDSFSPGNDFTHMTTTFPSGSTATSTEHTANNSTMMETFLTVWGPEHTDDPDVLRLMKSLTIQRNYVCQGDDGLMIIDGTTAGKVNSETIQNDLELISKYGEEFGWKYDIAYDGTAEYLKLYFIFGCRIPNLSRHPIVGKERANSSAEEPWPAILDQIMGVFFNGVHDGLQWQRWIRYSWALCCAFSRQRTMIGESVGYLQYPMWSFVYWGLPLVKAFGSDPWIFSWYMPTGDLGMYSWISLIRPLMTRWMVANGYVTDRCSTVFGNADYRRCFNELKLYQGYYMAQLPRNPKKSGRAASREVREQFTQALSDYLMQNPELKSRVLRGRSEWEKYGAGIIHNPPSLFDVPHKWYQGAQEAAIATREELAEMDETLMRARRHSYSSFSKLLEAYLLVKWRMCEAREPSVDLRLPLCAGIDPLNSDPFLKMVSVGPMLQSTRKYFAQTLFMAKTVSGLDVNAIDSALLRLRTLGADKKALTAQLLMVGLQESEADALAGKIMLQDVNTVQLARVVNLAVPDTWMSLDFDSMFKHHVKLLPKDGRHLNTDIPPRMGWLRAILRFLGAGMVMTATGVAVDIYLEDIHGGGRSLGQRFMTWMRQEGRSA
notes: RdRp λ3 of mammalian reovirus serotype Dearing 3, native in the virus particle; domains stated as residues 1-386, 387-556 and 595-690, 557-594 and 691-792, 793-901, 902-1267; Part of the transcribing enzyme complex (TEC) with µ2; ten TECs in each particle

The target in test [1] is B2. Briefly: cryo-EM structure; asymmetric (C1) vertex sub-particle reconstructions of native MRV ISVP at 3.3 Å, asymmetric full ISVP at 4.3 Å; isolated virus particles in PBS pH 7.4; proteins assembled in the particle, in situ. To be noted: both partners purified.
Test [2] has as its target T1, capsid shell protein (CSP) λ1. The test is described as above. The conditions noted are these: both partners purified.

Consider B1, for which the binding result in test [1] and in test [2] was “binds” in each case.
Turning to B2, in test [2], the binding result is “binds”.
